According to the supplement of paper PMC9112550, “Optimization of the antimicrobial peptide Bac7 by deep mutational scanning” (BMC Biology, 2022):

Tested on: Escherichia coli TOP10
Experiment: shrunken log2 fold change of peptide-encoding DNA abundance (4.5 h post-induction vs induction); higher = less antimicrobial activity (less host growth inhibition)
Conditions: time post-induction: 4.5 h; library: site-saturation at positions 5, 18, 19, 20
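Further: peptides expressed intracellularly from a pBAD plasmid library in pooled LB shake-flask culture, induced with 0.3% L-arabinose, DNA abundance read by NGS, three biological replicates, DESeq2 with apeglm shrinkage.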

| Sequence | shrunken log2 fold change |
| --- | --- |
| RRIRVRPPRLPRPRPRPNCVPRP | -0.0661 |
| RRIRKRPPRLPRPRPRPLLIPRP | -0.11 |
| RRIRSRPPRLPRPRPRPFTYPRP | -0.0179 |
| RRIRQRPPRLPRPRPRPLRPPRP | 0.699 |
| RRIRSRPPRLPRPRPRPGIPPRP | -0.00461 |
| RRIRTRPPRLPRPRPRPEHEPRP | -0.109 |
| RRIRARPPRLPRPRPRPYYTPRP | -0.762 |
| RRIRGRPPRLPRPRPRPGYFPRP | 3.3 |
| RRIRGRPPRLPRPRPRPEVYPRP | 0.346 |
| RRIRNRPPRLPRPRPRPEREPRP | 0.256 |
| RRIRPRPPRLPRPRPRPLFTPRP | -0.385 |
| RRIRSRPPRLPRPRPRPWSDPRP | -0.164 |
| RRIRMRPPRLPRPRPRPVDRPRP | 0.278 |
| RRIRNRPPRLPRPRPRPGFRPRP | 0.114 |
| RRIRTRPPRLPRPRPRPQGDPRP | -0.0192 |
| RRIRVRPPRLPRPRPRPSILPRP | -0.312 |
| RRIRCRPPRLPRPRPRPQGSPRP | 0.0401 |
| RRIRYRPPRLPRPRPRPEPYPRP | -0.288 |
| RRIRTRPPRLPRPRPRPYEQPRP | -0.0291 |
| RRIRRRPPRLPRPRPRPSMTPRP | 0.315 |
| RRIRWRPPRLPRPRPRPFNNPRP | -0.494 |
| RRIRMRPPRLPRPRPRPMNEPRP | -0.101 |
| RRIRWRPPRLPRPRPRPHWTPRP | -0.158 |

| Sequence | shrunken log2 fold change |
| --- | --- |
| RRIRFRPPRLPRPRPRPWAQPRP | -0.141 |
| RRIRCRPPRLPRPRPRPCHWPRP | 0.0101 |
| RRIRARPPRLPRPRPRPWVDPRP | -0.0331 |
| RRIRMRPPRLPRPRPRPGFEPRP | 0.526 |
| RRIRFRPPRLPRPRPRPPPLPRP | 1.38 |
| RRIRGRPPRLPRPRPRPTTQPRP | 0.429 |
| RRIRWRPPRLPRPRPRPAILPRP | 0.0915 |
| RRIRRRPPRLPRPRPRPKRKPRP | 0.099 |
| RRIRTRPPRLPRPRPRPPLLPRP | 0.172 |
| RRIRVRPPRLPRPRPRPLACPRP | 0.214 |
| RRIRCRPPRLPRPRPRPEIHPRP | -0.217 |
| RRIRPRPPRLPRPRPRPPYVPRP | -0.0964 |
| RRIRIRPPRLPRPRPRPNFYPRP | -0.565 |
| RRIRNRPPRLPRPRPRPCPAPRP | 0.203 |
| RRIRARPPRLPRPRPRPACSPRP | 0.591 |
| RRIRWRPPRLPRPRPRPRCRPRP | 0.371 |
| RRIRWRPPRLPRPRPRPEGLPRP | 0.267 |
| RRIRRRPPRLPRPRPRPGNLPRP | 0.0367 |
| RRIRIRPPRLPRPRPRPKWHPRP | -0.27 |
| RRIRSRPPRLPRPRPRPDQTPRP | 0.0249 |
| RRIRYRPPRLPRPRPRPSMEPRP | -0.408 |
| RRIRQRPPRLPRPRPRPWGPPRP | 0.0893 |
| RRIRWRPPRLPRPRPRPNVQPRP | -0.0399 |

| Sequence | shrunken log2 fold change |
| --- | --- |
| RRIRQRPPRLPRPRPRPVTAPRP | -0.362 |
| RRIRDRPPRLPRPRPRPDNVPRP | -0.273 |
| RRIRSRPPRLPRPRPRPKWTPRP | -0.0493 |
| RRIRQRPPRLPRPRPRPRDVPRP | -0.0705 |
| RRIRRRPPRLPRPRPRPVCTPRP | 0.575 |
| RRIRKRPPRLPRPRPRPALAPRP | 0.885 |
| RRIRMRPPRLPRPRPRPFHSPRP | -0.0121 |
| RRIRMRPPRLPRPRPRPPVQPRP | 0.378 |
| RRIRPRPPRLPRPRPRPPNTPRP | 0.179 |
| RRIRKRPPRLPRPRPRPWEIPRP | -0.00947 |
| RRIRLRPPRLPRPRPRPFDKPRP | -0.151 |
| RRIRSRPPRLPRPRPRPARHPRP | 0.277 |
| RRIRMRPPRLPRPRPRPKQVPRP | 0.0554 |
| RRIRMRPPRLPRPRPRPHGWPRP | 0.839 |
| RRIRVRPPRLPRPRPRPEQIPRP | -0.0137 |
| RRIRLRPPRLPRPRPRPGQYPRP | -0.0693 |
| RRIRFRPPRLPRPRPRPWWLPRP | -0.0533 |
| RRIRGRPPRLPRPRPRPRLIPRP | 0.166 |
| RRIRKRPPRLPRPRPRPYKKPRP | -0.201 |
| RRIRCRPPRLPRPRPRPLQNPRP | -0.0876 |
| RRIRGRPPRLPRPRPRPCFYPRP | 0.156 |
| RRIRDRPPRLPRPRPRPIHAPRP | 0.125 |
| RRIRGRPPRLPRPRPRPHVQPRP | 0.262 |

| Sequence | shrunken log2 fold change |
| --- | --- |
| RRIRLRPPRLPRPRPRPRIIPRP | -1.12 |
| RRIRIRPPRLPRPRPRPSTPPRP | -0.373 |
| RRIRRRPPRLPRPRPRPGHTPRP | 0.274 |
| RRIRGRPPRLPRPRPRPKESPRP | 0.981 |
| RRIRYRPPRLPRPRPRPHKPPRP | -0.171 |
| RRIRQRPPRLPRPRPRPHCQPRP | -0.39 |
| RRIRLRPPRLPRPRPRPLWPPRP | 0.302 |
| RRIRRRPPRLPRPRPRPPKQPRP | 0.459 |
| RRIRTRPPRLPRPRPRPPLYPRP | -0.12 |
| RRIRGRPPRLPRPRPRPKAKPRP | 0.017 |
| RRIRQRPPRLPRPRPRPWLQPRP | 0.188 |
| RRIRRRPPRLPRPRPRPNTCPRP | 0.0105 |
| RRIRCRPPRLPRPRPRPDPLPRP | 0.00869 |
| RRIRFRPPRLPRPRPRPGRKPRP | 0.107 |
| RRIRIRPPRLPRPRPRPFIRPRP | -0.358 |
| RRIRGRPPRLPRPRPRPNIPPRP | -0.251 |
| RRIRARPPRLPRPRPRPPMKPRP | 0.303 |
| RRIRGRPPRLPRPRPRPDILPRP | 0.785 |
| RRIRSRPPRLPRPRPRPHARPRP | 0.0679 |
| RRIRERPPRLPRPRPRPLHEPRP | -0.65 |
| RRIRRRPPRLPRPRPRPPETPRP | 0.831 |
| RRIRYRPPRLPRPRPRPFCQPRP | 0.0155 |
